Data as given in PMC3386930, “Altering APP Proteolysis: Increasing sAPPalpha Production by Targeting Dimerization of the APP Ectodomain” (PLoS ONE, 2012).

Tests used:
eAPP230–624 [1] = biological target: T1, eAPP230–624 (Homo sapiens, UniProt P05067); assay: Small-angle X-ray scattering (SAXS) of eAPP230–624 complexes; assay type: binding; settings: SAXS, GNOM, eAPP230–624 with peptide
T1 construct: made in house
Protocol: The samples were incubated on ice for 20 minutes and then concentrated to 50 µl with 10-kDa cutoff concentrators (Millipore). […] Samples of the filtrates were used for buffer subtraction.
The samples were then concentrated and purified with a Superdex S200 size-exclusion column with 20 mM Tris pH 7.4, 100 mM sodium chloride and 2 mM EDTA. Samples of the protein buffer from the size-exclusion columns were used for buffer subtraction.
Data collection and processing
Small-angle X-ray scattering data were collected using protein concentrations in the range of 0.5–3 mg/ml and an X-ray wavelength of 1.11 Å at beam line 12.3.1 (Advanced Light Source). Data were integrated with software customized for the beam line and processed with the program PRIMUS [30]. The program GNOM [31] was used to calculate the maximum dimension and the radius of gyration and to estimate the intensity of the scattering at zero angle for higher concentration samples.

eAPP230–624 [2] = biological target: T1, eAPP230–624; assay: Intrinsic tryptophan fluorescence of eAPP230–624; assay type: binding
Protocol: The excitation spectra of the intrinsic tryptophan fluorescence were recorded using either a Shimadzu RF-530PC (Shimadzu Scientific Instruments) or a Spectramax XPS spectrophotometer (Molecular Devices).
Full emission spectra were measured with the Shimadzu RF-530PC using a 3 ml quartz cuvette, a 5 nm slit width and protein concentrations between 0.2–0.6 µM. […] For these larger dilutions, control titrations with the protein alone were used to generate a scaling matrix where the scale factor was both a function of wavelength and dilution. […] A similar scaling matrix was used to correct for the effect of dilution with DMSO. […] All titrations were performed at 24°C. The oligomers were stored on ice during the experiment.
These concentrations are analogous to concentrations used to create complexes for the small angle x-ray scattering analysis. The incubated material was diluted with PBS so that the final protein concentration was 0.5 µM. The spectra were recorded with the Shimadzu […].
For experiments with the Spectromax XPS plate reader, an excitation wavelength of 295 nm was used. This excitation wavelength was chosen to minimize both the contribution of tyrosine in the protein and the background fluorescence of the 96-well plates (Costar #3915).
For the quenching experiments, the data were analyzed by constructing Stern-Volmer plots, F0/F vs. Q, where Fo is the intensity of the fluorescence at zero concentration, F is the intensity of the fluorescence, and Q is the concentration of the quenching agent. When quenching is through either a static (binding) or dynamic (collisional) mechanism this plot is linear and follows the equation: [drawing 1] (1) where Ksv is the quenching constant. When both processes are present the Stern-Volmer plot is quadratic: [drawing 2] (2) where KD is the equilibrium constant associated with dynamic quenching and Ks is the equilibrium constant associated with static quenching. All parameters were determined using PRISM (GraphPad) and the appropriate non-linear curve fitting routine.
The centroid wavelength (λc) was calculated as: [drawing 3] (3) where I(λi) is the intensity observed for the wavelength (λi). The range of wavelengths was 310–390 nm.

[3] = biological target: MBP-eAPP_(230–624), maltose binding protein fusion protein containing residues 230–624 (UniProt P05067); assay: small-angle X-ray scattering (SAXS); 150 µl MBP-eAPP230-624 (≈0.5 mg/ml) diluted with 400 µl of peptide solution, 20 minutes on ice, concentrated to 50 µl with 10-kDa cutoff concentrators
[4] = biological target: TRX-eAPP_(290–624), thioredoxin fusion protein containing residues 290–624 of APP695 (UniProt P05067); assay: small-angle X-ray scattering (SAXS); eAPP fragment incubated on ice with Aβ oligomers or Aβ fragments (peptide less than 10 µM), concentrated and purified on Superdex S200 in 20 mM Tris pH 7.4, 100 mM sodium chloride, 2 mM EDTA
[5] = biological target: the molecule itself; assay: small-angle X-ray scattering (SAXS); eAPP fragment alone; 0.5–3 mg/ml, X-ray wavelength 1.11 Å; relative mass from I(0) against albumin and the eAPP fragment dimer

Molecule: 20-kDa Aβ1-42: 20-kDa Aβ1-42 oligomers
- Dmax (eAPP230–624 [1]; maximum dimension, max. estimated error ±10 Å): 170 Å
- Rg (eAPP230–624 [1]; radius of gyration, max. estimated error ±2 Å): 46 Å

Molecule: 13-kDa Aβ1-42: 13-kDa Aβ1-42 oligomers, predominately trimers
- increase in intensity of the fluorescence (eAPP230–624 [2]; rapid dilution, final 1:27 molar ratio, 0.64 µM eAPP230–624, Shimadzu RF-530PC): 114%

Molecule: Aβ10-20 (peptide)
- MWcalc/MWseq (apparent mass of the sample over the sequence mass of the eAPP fragment) [3]: 1.3

Molecule: Aβ11-17 (peptide)
- MWcalc/MWseq (apparent mass of the sample over the sequence mass of the eAPP fragment) [4]: 1.2

Molecule: Aβ5-14: Aβ fragment (RHDSGYEVHH; Amyloid-beta protein 42; UniProt P05067 676-685, looked up, fragment)
- inhibition of eAPP dimerization (in words) (eAPP230–624 [2]; legend of titration of 0.64 µM eAPP230–624 with 0–60 µM fragment): inhibit eAPP dimerization

B1: MBP-eAPP_(230–624), maltose binding protein fusion protein containing residues 230–624 (domain or fragment, UniProt P05067-4 230-624, looked up)
chain: EEEEVAEVEEEEADDDEDDEDGDEVEEEAEEPYEEATERTTSIATTTTTTTESVEEVVRVPTTAASTPDAVDKYLETPGDENEHAHFQKAKERLEAKHRERMSQVMREWEEAERQAKNLPKADKKAVIQHFQEKVESLEQEAANERQQLVETHMARVEAMLNDRRRLALENYITALQAVPPRPRHVFNMLKKYVRAEQKDRQHTLKHFEHVRMVDPKKAAQIRSQVMTHLRVIYERMNQSLSLLYNVPAVAEEIQDEVDELLQKEQNYSDDVLANMISEPRISYGNDALMPSLTETKTTVELLPVNGEFSLDDLQPWHSFGADSVPANTENEVEPVDARPAADRGLTTRPGSGLTNIKTEEISEVKMDAEFRHDSGYEVHHQKLVFFAEDVGSNK
notes: numbers count on: APP695; Dimer by SAXS; source: expressed and purified as previously described [18]
- stoichiometry N [5]: 2

B2: eAPP_(230–624), fragment of the APP ectodomain containing residues 230–624 (domain or fragment, UniProt P05067-4 230-624, looked up)
chain: B1 chain
notes: as for B1
- stoichiometry N [5]: 2

B3: TRX-eAPP_(290–624), thioredoxin fusion protein containing residues 290–624 of APP695 (domain or fragment, UniProt P05067-4 290-624, looked up)
chain: PTTAASTPDAVDKYLETPGDENEHAHFQKAKERLEAKHRERMSQVMREWEEAERQAKNLPKADKKAVIQHFQEKVESLEQEAANERQQLVETHMARVEAMLNDRRRLALENYITALQAVPPRPRHVFNMLKKYVRAEQKDRQHTLKHFEHVRMVDPKKAAQIRSQVMTHLRVIYERMNQSLSLLYNVPAVAEEIQDEVDELLQKEQNYSDDVLANMISEPRISYGNDALMPSLTETKTTVELLPVNGEFSLDDLQPWHSFGADSVPANTENEVEPVDARPAADRGLTTRPGSGLTNIKTEEISEVKMDAEFRHDSGYEVHHQKLVFFAEDVGSNK
notes: as for B1
- stoichiometry N [5]: 2
